From patent US20200332281 (published 2020)

B1: T_apt.2 (= T_beads_apt.5) (ssDNA)
DNA: AGCAGCACAGAGGTCAGATGGAGTCGGGTGGCTATTGGGTATGGACCGTGCCTATGCGTGCTACCGTGAA
B2: T_beads_re_apt.9 (ssDNA)
DNA: AGCAGCACAGAGGTCAGATGGGGGATGGTTAGGGTGGCTTAATATTGACCCCTATGCGTGCTACCGTGAA
B3: T_apt.6 (ssDNA)
DNA: AGCAGCACAGAGGTCAGATGGTTGGGTAGGGTTGGATAGGGGCAAGTAGACCTATGCGTGCTACCGTGAA
B4: T_apt.5 (ssDNA)
DNA: AGCAGCACAGAGGTCAGATGGTGGATTTGGGTGGATTGGTATGAACTGACCCTATGCGTGCTACCGTGAA
B5: T_apt.4 (= T_beads_re_apt.8) (ssDNA)
DNA: AGCAGCACAGAGGTCAGATGTTGGTGGGGTGGCTTTGGGTATTTACTTGGCCTATGCGTGCTACCGTGAA
B6: T_apt.3 (= T_beads_apt.1, T_beads_re_apt.7) (ssDNA)
DNA: AGCAGCACAGAGGTCAGATGGATGGTGTAGGTTGGGAGAGGCTCAGTGCCCCTATGCGTGCTACCGTGAA

Experiments:
thrombin [1] = target: T1, thrombin (UniProt P00734;P00734 P00734:328-363,P00734:364-622); assay: SPR; no specific response
thrombin [2] = target: T1, thrombin; assay: SPR; HBS-EP, 150 mM NaCl, pH 7.0

Binder	binding result (thrombin [1])	Kd (thrombin [2]) [nM]
B1	no binding	
B2	no binding	
B3		55
B4	no binding	
B5		81
B6		76
